For experiment [1], the target named is T1, synthetic peptide of stem helix (1141-1161) of SARS-CoV-2 WT S with biotin at C terminus (SARS-CoV-2, UniProt P0DTC2).
T1 construct: source: synthetic peptide
Description: BLI; […] (Gator Bio); antibody at 1 to 100 nM in 100 mM HEPES, 500 mM NaCl, 0.005% Tween20, 0.1% BSA; […]. The conditions noted are these: both partners purified. (Biolayer interferometry detects binding as a change in optical thickness at a sensor tip.)

In experiment [2] the target is Myc-tagged S fragment of bat coronavirus (BtCoV)-HKU5 (BtCoV-HKU5 (GenBank AGP04943.1), UniProt S4X425). Description: Western blot. To be noted: one partner purified.
Experiment [3] has as its target Myc-tagged S fragment of human coronavirus (HCoV)-OC43 (HCoV-OC43 (GenBank L14643.1), UniProt P36334). Nature of the experiment: Western blot. The conditions noted are these: one partner purified.
The target in experiment [4] is T2, Myc-tagged S fragment of MERS-CoV (MERS-CoV, isolate of GenBank KT357812.1, UniProt A0A024E0Q9).
T2 construct: source: 293FT cells, transiently transfected, in lysate (RIPA buffer)
Nature of the experiment: Western blot. The conditions noted are these: one partner purified. For orientation: Immunoblotting shows a protein as a band on a membrane.

The target in experiment [5] is Myc-tagged S fragment of mouse hepatitis virus (MHV) (Mouse hepatitis virus, ATCC VR-764 …, UniProt P11224). Nature of the experiment: Western blot. To be noted: one partner purified.

Some results are limits rather than exact numbers.

Myc-tagged S fragment of mouse hepatitis virus (MHV), sequence (P11224 whole entry, looked up, the tested form may be a part): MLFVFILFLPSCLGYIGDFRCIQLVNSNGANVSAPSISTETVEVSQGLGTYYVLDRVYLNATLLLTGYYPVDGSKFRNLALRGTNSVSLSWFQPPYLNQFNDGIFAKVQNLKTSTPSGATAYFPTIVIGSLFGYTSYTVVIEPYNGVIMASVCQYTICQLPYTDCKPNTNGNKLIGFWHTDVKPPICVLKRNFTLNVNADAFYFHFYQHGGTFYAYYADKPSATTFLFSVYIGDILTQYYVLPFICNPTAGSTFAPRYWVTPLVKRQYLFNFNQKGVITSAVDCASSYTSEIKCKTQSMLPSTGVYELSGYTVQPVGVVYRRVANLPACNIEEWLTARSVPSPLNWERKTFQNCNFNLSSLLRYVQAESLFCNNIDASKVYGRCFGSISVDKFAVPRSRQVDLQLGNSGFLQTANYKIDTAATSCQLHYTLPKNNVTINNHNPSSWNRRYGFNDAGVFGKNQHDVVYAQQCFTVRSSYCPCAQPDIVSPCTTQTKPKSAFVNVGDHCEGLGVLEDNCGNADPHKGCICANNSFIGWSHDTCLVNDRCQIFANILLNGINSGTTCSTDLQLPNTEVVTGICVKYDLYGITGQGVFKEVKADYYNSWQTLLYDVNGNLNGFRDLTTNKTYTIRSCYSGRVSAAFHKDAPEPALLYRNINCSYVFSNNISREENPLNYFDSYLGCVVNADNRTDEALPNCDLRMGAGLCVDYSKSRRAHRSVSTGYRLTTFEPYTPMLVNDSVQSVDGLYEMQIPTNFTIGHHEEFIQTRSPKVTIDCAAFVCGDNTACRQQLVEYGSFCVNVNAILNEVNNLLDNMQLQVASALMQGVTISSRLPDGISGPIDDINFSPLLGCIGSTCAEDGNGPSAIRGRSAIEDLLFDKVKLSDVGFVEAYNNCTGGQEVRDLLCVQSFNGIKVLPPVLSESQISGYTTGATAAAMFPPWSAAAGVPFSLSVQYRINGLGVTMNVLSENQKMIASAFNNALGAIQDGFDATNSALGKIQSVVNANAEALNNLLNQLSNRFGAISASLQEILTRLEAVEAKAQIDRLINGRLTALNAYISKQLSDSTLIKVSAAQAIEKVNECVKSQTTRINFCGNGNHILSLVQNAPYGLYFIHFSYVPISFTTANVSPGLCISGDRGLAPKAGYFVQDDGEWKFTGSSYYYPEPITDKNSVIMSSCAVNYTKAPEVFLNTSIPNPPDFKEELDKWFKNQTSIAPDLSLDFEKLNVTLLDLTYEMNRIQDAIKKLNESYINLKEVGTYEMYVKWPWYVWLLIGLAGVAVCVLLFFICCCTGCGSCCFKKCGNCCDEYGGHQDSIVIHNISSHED
Myc-tagged S fragment of human coronavirus (HCoV)-OC43, sequence (P36334 whole entry, looked up, the tested form may be a part, one chain of several): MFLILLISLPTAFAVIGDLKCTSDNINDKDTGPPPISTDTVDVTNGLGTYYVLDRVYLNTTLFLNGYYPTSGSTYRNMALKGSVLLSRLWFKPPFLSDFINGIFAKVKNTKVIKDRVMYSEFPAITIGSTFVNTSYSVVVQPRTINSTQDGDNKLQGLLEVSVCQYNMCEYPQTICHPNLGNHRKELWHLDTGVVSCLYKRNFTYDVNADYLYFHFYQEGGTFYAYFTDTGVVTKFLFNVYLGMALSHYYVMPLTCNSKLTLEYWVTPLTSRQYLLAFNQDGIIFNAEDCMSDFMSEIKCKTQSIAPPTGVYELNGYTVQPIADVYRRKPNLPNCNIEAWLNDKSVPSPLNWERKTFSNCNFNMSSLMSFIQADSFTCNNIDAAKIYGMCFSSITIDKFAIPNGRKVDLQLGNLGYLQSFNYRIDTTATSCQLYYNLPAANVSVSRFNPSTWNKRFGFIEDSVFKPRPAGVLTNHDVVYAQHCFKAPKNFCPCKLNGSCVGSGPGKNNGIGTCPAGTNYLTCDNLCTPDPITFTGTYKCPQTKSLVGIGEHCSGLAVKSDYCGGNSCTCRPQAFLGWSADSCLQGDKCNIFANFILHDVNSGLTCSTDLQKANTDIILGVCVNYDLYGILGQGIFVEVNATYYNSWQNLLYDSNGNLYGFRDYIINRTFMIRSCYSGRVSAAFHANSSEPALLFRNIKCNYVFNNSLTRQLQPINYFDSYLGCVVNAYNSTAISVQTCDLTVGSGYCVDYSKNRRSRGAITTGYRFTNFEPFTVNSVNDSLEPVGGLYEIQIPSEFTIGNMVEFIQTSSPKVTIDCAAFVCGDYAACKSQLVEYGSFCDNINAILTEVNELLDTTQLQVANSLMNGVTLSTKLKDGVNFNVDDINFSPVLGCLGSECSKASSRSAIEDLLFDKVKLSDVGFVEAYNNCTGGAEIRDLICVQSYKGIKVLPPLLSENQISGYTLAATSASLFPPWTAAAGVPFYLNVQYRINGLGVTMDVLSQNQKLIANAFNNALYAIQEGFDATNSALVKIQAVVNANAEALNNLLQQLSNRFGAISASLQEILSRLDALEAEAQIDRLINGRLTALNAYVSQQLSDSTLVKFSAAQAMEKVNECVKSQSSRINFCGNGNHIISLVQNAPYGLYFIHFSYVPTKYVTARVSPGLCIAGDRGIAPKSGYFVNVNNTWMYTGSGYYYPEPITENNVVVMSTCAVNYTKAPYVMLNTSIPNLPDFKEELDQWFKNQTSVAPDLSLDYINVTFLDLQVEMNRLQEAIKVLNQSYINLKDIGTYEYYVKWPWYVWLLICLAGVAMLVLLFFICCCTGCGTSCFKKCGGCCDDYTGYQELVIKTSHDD

B1: S2P6 recombinant mAb with human IgG1 constant region (antibody, V domains shown)
VH: EVQLVQSGAEVKKPGASVKVSCKASGYTFTSQYMHWVRQAPGQGLEWIGIINPSGVHTSYAQKFQGRVTLTRDTSTSTLYMELSSLRSEDTAVYYCARGSPKGAFDYWGQGTLVTVSS
VL: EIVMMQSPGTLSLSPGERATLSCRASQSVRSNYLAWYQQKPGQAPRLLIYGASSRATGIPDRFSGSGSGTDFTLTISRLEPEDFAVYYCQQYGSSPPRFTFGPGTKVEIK
notes: also called mAb S2P6
On to B1, for which the Kd – broadly, the equilibrium constant for the complex coming apart – in experiment [1] is < 1 pM. For the same molecule, the binding result in experiment [2], in experiment [3], in experiment [4] and in experiment [5] was “binds” each time.

Values taken from paper PMC12299175 (Vaccines, 2025).
